# Biological target: T1, CD3 epsilon homodimer protein (UniProt P07766 23-126)
# T1 construct: Construct of the homodimer protein is not described; also called CD3 (CD3 epsilon)
# Assay: SPR (Biacore T200), CD3 epsilon homodimer on CM4 chip, one-arm antibody as analyte; ratio to unaltered CE115HA000;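 note: surface plasmon resonance run at 25 °C with HBS-EP+ as running buffer, CD3 epsilon homodimer attached by amine coupling, antibody passed over as analyte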
# T1 sequence (P07766 23-126): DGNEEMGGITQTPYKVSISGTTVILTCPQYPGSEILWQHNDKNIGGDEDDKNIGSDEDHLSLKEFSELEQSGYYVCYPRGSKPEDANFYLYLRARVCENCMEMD
row,Binder,KD ratio (KD value of CE115HA000/KD value of the altered form)
1,"CE115HA000 D101K one-arm antibody (antibody, human IgG1, kappa, L234A L235A, N297A, name in Kabat numbering, one-arm antibody) heavy: QVQLVESGGGVVQPGRSLRLSCAASGFTFSNAWMHWVRQAPGKGLEWVAQIKAKSNNYATYYAESVKGRFTISRDDSKNSLYLQMNSLKTEDTAVYYCRYVHYGAYYGVKAWGQGTTVTVSSASTKGPSVFPLAPSSKSTSGGTAALGCLVKDYFPEPVTVSWNSGALTSGVHTFPAVLQSSGLYSLSSVVTVPSSSLGTQTYICNVNHKPSNTKVDKKVEPKSCDKTHTCPPCPAPEAAGGPSVFLFPPKPKDTLMISRTPEVTCVVVDVSHEDPEVKFNWYVDGVEVHNAKTKPREEQYASTYRVVSVLTVLHQDWLNGKEYKCKVSNKALPAPIEKTISKAKGQPREPQVYTLPPSRCELTKNQVSLSCAVKGFYPSDIAVEWESNGQPENNYKTTPPVLDSDGSFFLVSKLTVDKSRWQQGNVFSCSVMHEALHNHYTQKSLSLSPDYKDDDDK EPKSSDKTHTCPPCPAPELLGGPSVFLFPPKPKDTLMISRTPEVTCVVVDVSHEDPEVKFNWYVDGVEVHNAKTKPREEQYNSTYRVVSVLTVLHQDWLNGKEYKCKVSNKALPAPIEKTISKAKGQPREPQVCTLPPSRDELTKNQVSLWCLVKGFYPSDIAVEWESNGQPENNYKTTPPVLDSDGSFFLYSKLTVDKSRWQQGNVFSCSVMHEALHNRYTQKSLSLSP light: DIVMTQSPLSLPVTPGEPASISCRSSQSLVHSNRNTYLHWYQQKPGQAPRLLIYKVSNRFSGVPDRFSGSGSGTDFTLKISRVEAEDVGVYYCGQGTQVPYTFGQGTKLEIKRTVAAPSVFIFPPSDEQLKSGTASVVCLLNNFYPREAKVQWKVDNALQSGNSQESVTEQDSKDSTYSLSSTLTLSKADYEKHKVYACEVTHQGLSSPVTKSFNRGEC",4.37
2,"CE115HA000 D101L one-arm antibody (antibody, human IgG1, kappa, L234A L235A, N297A, name in Kabat numbering, one-arm antibody) heavy: QVQLVESGGGVVQPGRSLRLSCAASGFTFSNAWMHWVRQAPGKGLEWVAQIKAKSNNYATYYAESVKGRFTISRDDSKNSLYLQMNSLKTEDTAVYYCRYVHYGAYYGVLAWGQGTTVTVSSASTKGPSVFPLAPSSKSTSGGTAALGCLVKDYFPEPVTVSWNSGALTSGVHTFPAVLQSSGLYSLSSVVTVPSSSLGTQTYICNVNHKPSNTKVDKKVEPKSCDKTHTCPPCPAPEAAGGPSVFLFPPKPKDTLMISRTPEVTCVVVDVSHEDPEVKFNWYVDGVEVHNAKTKPREEQYASTYRVVSVLTVLHQDWLNGKEYKCKVSNKALPAPIEKTISKAKGQPREPQVYTLPPSRCELTKNQVSLSCAVKGFYPSDIAVEWESNGQPENNYKTTPPVLDSDGSFFLVSKLTVDKSRWQQGNVFSCSVMHEALHNHYTQKSLSLSPDYKDDDDK EPKSSDKTHTCPPCPAPELLGGPSVFLFPPKPKDTLMISRTPEVTCVVVDVSHEDPEVKFNWYVDGVEVHNAKTKPREEQYNSTYRVVSVLTVLHQDWLNGKEYKCKVSNKALPAPIEKTISKAKGQPREPQVCTLPPSRDELTKNQVSLWCLVKGFYPSDIAVEWESNGQPENNYKTTPPVLDSDGSFFLYSKLTVDKSRWQQGNVFSCSVMHEALHNRYTQKSLSLSP light: DIVMTQSPLSLPVTPGEPASISCRSSQSLVHSNRNTYLHWYQQKPGQAPRLLIYKVSNRFSGVPDRFSGSGSGTDFTLKISRVEAEDVGVYYCGQGTQVPYTFGQGTKLEIKRTVAAPSVFIFPPSDEQLKSGTASVVCLLNNFYPREAKVQWKVDNALQSGNSQESVTEQDSKDSTYSLSSTLTLSKADYEKHKVYACEVTHQGLSSPVTKSFNRGEC",0.71
3,"CE115HA000 D101M one-arm antibody (antibody, human IgG1, kappa, L234A L235A, N297A, name in Kabat numbering, one-arm antibody) heavy: QVQLVESGGGVVQPGRSLRLSCAASGFTFSNAWMHWVRQAPGKGLEWVAQIKAKSNNYATYYAESVKGRFTISRDDSKNSLYLQMNSLKTEDTAVYYCRYVHYGAYYGVMAWGQGTTVTVSSASTKGPSVFPLAPSSKSTSGGTAALGCLVKDYFPEPVTVSWNSGALTSGVHTFPAVLQSSGLYSLSSVVTVPSSSLGTQTYICNVNHKPSNTKVDKKVEPKSCDKTHTCPPCPAPEAAGGPSVFLFPPKPKDTLMISRTPEVTCVVVDVSHEDPEVKFNWYVDGVEVHNAKTKPREEQYASTYRVVSVLTVLHQDWLNGKEYKCKVSNKALPAPIEKTISKAKGQPREPQVYTLPPSRCELTKNQVSLSCAVKGFYPSDIAVEWESNGQPENNYKTTPPVLDSDGSFFLVSKLTVDKSRWQQGNVFSCSVMHEALHNHYTQKSLSLSPDYKDDDDK EPKSSDKTHTCPPCPAPELLGGPSVFLFPPKPKDTLMISRTPEVTCVVVDVSHEDPEVKFNWYVDGVEVHNAKTKPREEQYNSTYRVVSVLTVLHQDWLNGKEYKCKVSNKALPAPIEKTISKAKGQPREPQVCTLPPSRDELTKNQVSLWCLVKGFYPSDIAVEWESNGQPENNYKTTPPVLDSDGSFFLYSKLTVDKSRWQQGNVFSCSVMHEALHNRYTQKSLSLSP light: DIVMTQSPLSLPVTPGEPASISCRSSQSLVHSNRNTYLHWYQQKPGQAPRLLIYKVSNRFSGVPDRFSGSGSGTDFTLKISRVEAEDVGVYYCGQGTQVPYTFGQGTKLEIKRTVAAPSVFIFPPSDEQLKSGTASVVCLLNNFYPREAKVQWKVDNALQSGNSQESVTEQDSKDSTYSLSSTLTLSKADYEKHKVYACEVTHQGLSSPVTKSFNRGEC",1.94
4,"CE115HA000 D101N one-arm antibody (antibody, human IgG1, kappa, L234A L235A, N297A, name in Kabat numbering, one-arm antibody) heavy: QVQLVESGGGVVQPGRSLRLSCAASGFTFSNAWMHWVRQAPGKGLEWVAQIKAKSNNYATYYAESVKGRFTISRDDSKNSLYLQMNSLKTEDTAVYYCRYVHYGAYYGVNAWGQGTTVTVSSASTKGPSVFPLAPSSKSTSGGTAALGCLVKDYFPEPVTVSWNSGALTSGVHTFPAVLQSSGLYSLSSVVTVPSSSLGTQTYICNVNHKPSNTKVDKKVEPKSCDKTHTCPPCPAPEAAGGPSVFLFPPKPKDTLMISRTPEVTCVVVDVSHEDPEVKFNWYVDGVEVHNAKTKPREEQYASTYRVVSVLTVLHQDWLNGKEYKCKVSNKALPAPIEKTISKAKGQPREPQVYTLPPSRCELTKNQVSLSCAVKGFYPSDIAVEWESNGQPENNYKTTPPVLDSDGSFFLVSKLTVDKSRWQQGNVFSCSVMHEALHNHYTQKSLSLSPDYKDDDDK EPKSSDKTHTCPPCPAPELLGGPSVFLFPPKPKDTLMISRTPEVTCVVVDVSHEDPEVKFNWYVDGVEVHNAKTKPREEQYNSTYRVVSVLTVLHQDWLNGKEYKCKVSNKALPAPIEKTISKAKGQPREPQVCTLPPSRDELTKNQVSLWCLVKGFYPSDIAVEWESNGQPENNYKTTPPVLDSDGSFFLYSKLTVDKSRWQQGNVFSCSVMHEALHNRYTQKSLSLSP light: DIVMTQSPLSLPVTPGEPASISCRSSQSLVHSNRNTYLHWYQQKPGQAPRLLIYKVSNRFSGVPDRFSGSGSGTDFTLKISRVEAEDVGVYYCGQGTQVPYTFGQGTKLEIKRTVAAPSVFIFPPSDEQLKSGTASVVCLLNNFYPREAKVQWKVDNALQSGNSQESVTEQDSKDSTYSLSSTLTLSKADYEKHKVYACEVTHQGLSSPVTKSFNRGEC",2.28
5,"CE115HA000 D101P one-arm antibody (antibody, human IgG1, kappa, L234A L235A, N297A, name in Kabat numbering, one-arm antibody) heavy: QVQLVESGGGVVQPGRSLRLSCAASGFTFSNAWMHWVRQAPGKGLEWVAQIKAKSNNYATYYAESVKGRFTISRDDSKNSLYLQMNSLKTEDTAVYYCRYVHYGAYYGVPAWGQGTTVTVSSASTKGPSVFPLAPSSKSTSGGTAALGCLVKDYFPEPVTVSWNSGALTSGVHTFPAVLQSSGLYSLSSVVTVPSSSLGTQTYICNVNHKPSNTKVDKKVEPKSCDKTHTCPPCPAPEAAGGPSVFLFPPKPKDTLMISRTPEVTCVVVDVSHEDPEVKFNWYVDGVEVHNAKTKPREEQYASTYRVVSVLTVLHQDWLNGKEYKCKVSNKALPAPIEKTISKAKGQPREPQVYTLPPSRCELTKNQVSLSCAVKGFYPSDIAVEWESNGQPENNYKTTPPVLDSDGSFFLVSKLTVDKSRWQQGNVFSCSVMHEALHNHYTQKSLSLSPDYKDDDDK EPKSSDKTHTCPPCPAPELLGGPSVFLFPPKPKDTLMISRTPEVTCVVVDVSHEDPEVKFNWYVDGVEVHNAKTKPREEQYNSTYRVVSVLTVLHQDWLNGKEYKCKVSNKALPAPIEKTISKAKGQPREPQVCTLPPSRDELTKNQVSLWCLVKGFYPSDIAVEWESNGQPENNYKTTPPVLDSDGSFFLYSKLTVDKSRWQQGNVFSCSVMHEALHNRYTQKSLSLSP light: DIVMTQSPLSLPVTPGEPASISCRSSQSLVHSNRNTYLHWYQQKPGQAPRLLIYKVSNRFSGVPDRFSGSGSGTDFTLKISRVEAEDVGVYYCGQGTQVPYTFGQGTKLEIKRTVAAPSVFIFPPSDEQLKSGTASVVCLLNNFYPREAKVQWKVDNALQSGNSQESVTEQDSKDSTYSLSSTLTLSKADYEKHKVYACEVTHQGLSSPVTKSFNRGEC",43.4
6,"CE115HA000 D101Q one-arm antibody (antibody, human IgG1, kappa, L234A L235A, N297A, name in Kabat numbering, one-arm antibody) heavy: QVQLVESGGGVVQPGRSLRLSCAASGFTFSNAWMHWVRQAPGKGLEWVAQIKAKSNNYATYYAESVKGRFTISRDDSKNSLYLQMNSLKTEDTAVYYCRYVHYGAYYGVQAWGQGTTVTVSSASTKGPSVFPLAPSSKSTSGGTAALGCLVKDYFPEPVTVSWNSGALTSGVHTFPAVLQSSGLYSLSSVVTVPSSSLGTQTYICNVNHKPSNTKVDKKVEPKSCDKTHTCPPCPAPEAAGGPSVFLFPPKPKDTLMISRTPEVTCVVVDVSHEDPEVKFNWYVDGVEVHNAKTKPREEQYASTYRVVSVLTVLHQDWLNGKEYKCKVSNKALPAPIEKTISKAKGQPREPQVYTLPPSRCELTKNQVSLSCAVKGFYPSDIAVEWESNGQPENNYKTTPPVLDSDGSFFLVSKLTVDKSRWQQGNVFSCSVMHEALHNHYTQKSLSLSPDYKDDDDK EPKSSDKTHTCPPCPAPELLGGPSVFLFPPKPKDTLMISRTPEVTCVVVDVSHEDPEVKFNWYVDGVEVHNAKTKPREEQYNSTYRVVSVLTVLHQDWLNGKEYKCKVSNKALPAPIEKTISKAKGQPREPQVCTLPPSRDELTKNQVSLWCLVKGFYPSDIAVEWESNGQPENNYKTTPPVLDSDGSFFLYSKLTVDKSRWQQGNVFSCSVMHEALHNRYTQKSLSLSP light: DIVMTQSPLSLPVTPGEPASISCRSSQSLVHSNRNTYLHWYQQKPGQAPRLLIYKVSNRFSGVPDRFSGSGSGTDFTLKISRVEAEDVGVYYCGQGTQVPYTFGQGTKLEIKRTVAAPSVFIFPPSDEQLKSGTASVVCLLNNFYPREAKVQWKVDNALQSGNSQESVTEQDSKDSTYSLSSTLTLSKADYEKHKVYACEVTHQGLSSPVTKSFNRGEC",3.55

# From US20240270846A1 (published 2024)
